# Measurements from IntAct's records for PubMed 22902366.
# B1: Secreted protein BARF1 (Epstein-Barr virus (strain B95-8) (HHV-4)), P03228 (parent)
# chain: MARFIAQLLLLASCVAAGQAVTAFLGERVTLTSYWRRVSLGPEIEVSWFKLGPGEEQVLIGRMHHDVIFIEWPFRGFFDIHRSANTFFLVVTAANISHDGNYLCRMKLGETEVTKQEHLSVVKPLTLSVHSERSQFPDFSVLTVTCTVNAFPHPHVQWLMPEGVEPAPTAANGGVMKEKDGSLSVAVDLSLPKPWHLPVTCVGKNDKEEAHGVYVSGYLSQ
# partner: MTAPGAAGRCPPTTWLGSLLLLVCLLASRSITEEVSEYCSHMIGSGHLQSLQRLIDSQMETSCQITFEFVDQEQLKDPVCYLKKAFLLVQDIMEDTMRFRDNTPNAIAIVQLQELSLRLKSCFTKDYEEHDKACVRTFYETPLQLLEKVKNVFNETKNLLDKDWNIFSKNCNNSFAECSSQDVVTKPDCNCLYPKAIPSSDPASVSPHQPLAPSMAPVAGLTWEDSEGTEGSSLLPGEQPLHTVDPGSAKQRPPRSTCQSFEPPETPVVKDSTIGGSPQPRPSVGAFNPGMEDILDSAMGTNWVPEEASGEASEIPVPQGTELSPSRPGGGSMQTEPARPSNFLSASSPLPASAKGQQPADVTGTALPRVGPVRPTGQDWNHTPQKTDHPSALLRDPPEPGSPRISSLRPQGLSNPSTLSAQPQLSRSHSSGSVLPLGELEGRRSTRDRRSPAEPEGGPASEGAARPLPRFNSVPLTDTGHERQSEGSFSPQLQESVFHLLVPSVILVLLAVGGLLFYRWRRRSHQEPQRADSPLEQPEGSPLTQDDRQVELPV
# B2: Macrophage colony-stimulating factor 1 (Homo sapiens), P09603 (parent)
# chain: B1 partner
# Variants of: B1
# Conditions: with csf1_human CSF1, P09603
row,Variant,effect of a mutation on the interaction
1,Y34A;R36A;R37A;V38A;S39A,decreasing interaction strength
2,Y34A;R36A;R37A;V38A;S39A;R82A;S83A;N85A;T86A,decreasing interaction strength

# Variants of: B2
# Conditions: with csf1r_human CSF1R
row,Variant,effect of a mutation on the interaction
1,H41A;H47A;Q90A;D91A,decreasing interaction strength
